{"source": "patent US20250122266A1", "about": "“SMART SINGLE-DOMAIN INTRABODIES WITH PRECISION SWITCHES FOR BIOMEDICAL APPLICATIONS” (THE TEXAS A&M UNIVERSITY SYSTEM, priority 2020, published 2025)", "key": {"[1]": {"molecular_target": "NE-tethered SH2 domain of Abl kinase (SH2 fused with mEmerald-lamin A) (UniProt P00519)", "assay": "NE/NP ratio of mCh signal in HeLa cells over light-dark cycles"}, "[2]": {"molecular_target": "ER anchored mCh (mCh fused with human Sac1 residues 521-587) (human) (UniProt Q9NTJ5)", "assay": "cytosol-to-ER translocation in HeLa cells under light"}, "[3]": {"molecular_target": "Mito-mCh (AKAP1-mCh, mitochondria-anchored mCherry) (human) (UniProt Q92667)", "assay": "cytosol-to-mitochondria translocation in HeLa cells under light"}, "[4]": {"molecular_target": "Mito-mCh (AKAP1-mCh, mitochondria-anchored mCherry) (human) (UniProt Q92667)", "assay": "Mito-to-cytosol ratio of GFP-rapabody in HeLa cells against rapamycin dose; the concentration is that of rapamycin, not of a protein"}, "[5]": {"molecular_target": "Mito-mCh (AKAP1-mCh, mitochondria-anchored mCherry) (human) (UniProt Q92667)", "assay": "mitochondria translocation assay in HeLa cells, 5 µM caffeine"}, "[6]": {"molecular_target": "Mito-mCh (AKAP1-mCh, mitochondria-anchored mCherry) (human) (UniProt Q92667)", "assay": "mitochondria translocation assay in HeLa cells, caffeine washed out"}, "[7]": {"molecular_target": "Mito-mCh (AKAP1-mCh, mitochondria-anchored mCherry) (human) (UniProt Q92667)", "assay": "Mito-to-cytosol ratio of GFP-caffebody in HeLa cells against caffeine dose; the concentration is that of caffeine, not of a protein"}}, "data": [{"binder": "mCh-moonbody (anti-SH2 moonbody, variant S5.1) (designed binder, not shown: large carriers) VSSVPTKLEVVDATPTSLKISWDAYYSSWQNVKYYRITYGETGGDSPVQEFTVPGYYSTATISGLKPGSGLATTLERIEKNFVITDPRLPDNPIIFASDSFLQLTEYSREEILGRNCRFLQGPETDRATVRKIRDAIDNQTEVTVQLINYTKSGKKFWNLFHLQPMRDQKGDVQYFIGVQLDGTEHVRDAAEREGVMLIKKTAENIDEAAKELGVDYTITVYAYDTFFPGYEPNSPISINYRT", "values": [{"measurement": "activation half-life (light-induced dissociation from the antigen)", "setting": "[1]", "value": 7.8, "unit": "s"}, {"measurement": "deactivation half-life (return to the antigen in the dark)", "setting": "[1]", "value": 46.5, "unit": "s"}]}, {"binder": "GFP-2xsunbody (dimeric concatemer of sunbody) (VHH, not shown: large carriers) LATTLERIEKNFVITDPRLPDNPIIFASDSFLQLTEYSREEILGRNCRFLQGPETDRATVRKIRDAIDNQTEVTVQLINYTKSGKKFWNLFHLQPMRDQKGDVQYFIGVQLDGTEHVRDAAEREGVMLIKKTAENIDEAAKELKLMAQVQLVESGGGLVQAGGSLRLSCAVSGRPFSEYNLGWFRQAPGKEREFVARIRSSGTTVYTDSVKGRFSASRDNALERIEKNFVITDPRLPDNPIIFASDSFLQLTEYSREEILGRNCRFLQGPETDRATVRKIRDAIDNQTEVTVQLINYTKSGKKFWNLFHLQPMRDQKGDVQYFIGVQLDGTEHVRDAAEREGVMLIKKTAENIDEAAKNMGYLQLNSLEPEDTAVYYCAMSRVDTDSPAFYDYWGQGTQVTVSTPRSLATTLERIEKNFVITDPRLPDNPIIFASDSFLQLTEYSREEILGRNCRFLQGPETDRATVRKIRDAIDNQTEVTVQLINYTKSGKKFWNLFHLQPMRDQKGDVQYFIGVQLDGTEHVRDAAEREGVMLIKKTAENIDEAAKELKLMAQVQLVESGGGLVQAGGSLRLSCAVSGRPFSEYNLGWFRQAPGKEREFVARIRSSGTTVYTDSVKGRFSASRDNALERIEKNFVITDPRLPDNPIIFASDSFLQLTEYSREEILGRNCRFLQGPETDRATVRKIRDAIDNQTEVTVQLINYTKSGKKFWNLFHLQPMRDQKGDVQYFIGVQLDGTEHVRDAAEREGVMLIKKTAENIDEAAKNMGYLQLNSLEPEDTAVYYCAMSRVDTDSPAFYDYWGQGTQVTVSTPRS", "values": [{"measurement": "fold increase in the signal-to-background ratio against 1x sunbody", "setting": "[2]", "value": "> 2", "unit": "fold"}, {"measurement": "fold increase in the signal-to-background ratio against 1x sunbody", "setting": "[3]", "value": "> 2", "unit": "fold"}]}, {"binder": "GFP-rapabody (anti-mCh nanobody LaM8 with UniRapR in the S3 loop) (VHH, not shown: large carriers) QLVESGGGLVQAGGSLRLSCAVSGRPFSEYNLGWFRQAPGKEREFVARIRSSGTTVYTDSVKGRFSASRDNATCVVHYTGMLEDGKKFDSSRDRNKPFKFMLGKQEVIRGWEEGVAQMSVGQRAKLTISPDYAYGATGHGSGSGSGVKDLLQAWDLYYHVFRRISGPPGPGSGLWHEMWHEGLEEASRLYFGERNVKGMFEVLEPLHAMMERGPQTLKETSFNQAYGRDLMEAQEWCRKYMKSGSSGGSGSGIIPPHATLVFDVELLKLEKNMGYLQLNSLEPEDTAVYYCAMSRVDTDSPAFYDYWGQGTQVTVSTPRS", "values": [{"measurement": "EC50 of rapamycin (dose of the small-molecule switch) for release from the antigen", "setting": "[4]", "value": 1600, "unit": "nM"}]}, {"binder": "GFP-caffebody (anti-mCh nanobody LaM8 with 2xacVHH in the S3 loop) (VHH, not shown: large carriers) MAQVQLVESGGGLVQAGGSLRLSCAVSGRPFSEYNLGWFRQAPGKEREFVARIRSSGTTVYTDSVKGRFSASRDNAEVQLQASGGGLVQAGGSLRLSCTASGRTGTIYSMAWFRQAPGKEREFLATVGWSSGITYYMDSVKGRFTISRDNAKNSAYLQMNSLKPEDTAVYYCTATRAYSVGYDYWGQGTQVTVSHAAAGAPVPYPDPLEPREQKLISEEDLLEAVYSGGGGGGGSGGGGGGGSGGGGGGGSGEVQLQASGGGLVQAGGSLRLSCTASGRTGTIYSMAWFRQAPGKEREFLATVGWSSGITYYMDSVKGRFTISRDNAKNSAYLQMNSLKPEDTAVYYCTATRAYSVGYDYWGQGTQVTVSKNMGYLQLNSLEPEDTAVYYCAMSRVDTDSPAFYDYWGQGTQVTVSTPRS", "values": [{"measurement": "half-life of caffeine-induced translocation to the antigen (t½, on)", "setting": "[5]", "value": 16.3, "unit": "s"}, {"measurement": "deactivation half-life after withdrawal of caffeine", "setting": "[6]", "value": 23.6, "unit": "s"}, {"measurement": "EC50 of caffeine (dose of the small-molecule switch) for binding to the antigen", "setting": "[7]", "value": 2300, "unit": "nM"}]}]}
